Blank lines part the entries; values can stand above or below the substance they belong to.
Tests used:
Assay in all cases: cell-based or functional assay
[1] = target: Chymotrypsin having an activity of approx. 40 BTEE units per mg
[2] = target: Chymotrypsin having an activity of approx. 40 BTEE units per mg; details: scale: mg ChymoTrypsin inhibited/1 mgP-ChymoTrypsin Inhibitor
[3] = target: Trypsin having an activity of approx. 10,000 BAEE units per mg
[4] = scale: mg ChymoTrypsin inhibited/1 mgP-ChymoTrypsin Inhibitor

BBI activity of final product, after the change of the filtration process [1]: 0.8 to 1.4 mg⁻¹
BBI activity of final product, before the change of the filtration process [1]: 0.4 to 0.6 mg⁻¹
BBI activity, step: Final after lyophilization "as-is" (mg chymotrypsin inhibited per mg solid) [1]: 0.8
Chymotrypsin inhibitor activity of purified BBI (mg chymotrypsin inhibited per mg) [1]: 1.49
BBI activity, step: BBI permeate of 30 Kda. [1, 4]: 0.8
BBI activity, step: BBI pool [1, 4]: 0.5
BBI activity, step: Permeate of 5 KDa [1, 4]: 0.13
BBI activity, step: Retentate of 5 KDa after 4.5 x concentration [1, 4]: 0.8
BBI activity, step: Retentate of 10 Kda after diafiltration [1, 4]: 0.7
BBI activity, step: Retentate of 30 KDa [1, 4]: 0.13
BBI activity, final lyophilized product on the basis of dry weight ([1]; scale: mg chymotrypsin inhibited per mg dry weight): 0.9
BBI Activity, large-scale prep ([1]; scale: not given): 1.49
BBI Activity, previous procedure ([1]; scale: not given): 1.2
BBI activity, step: BBI After formulation and microfiltration 0.45/0.2 [2]: 0.8
BBI activity, step: BBI permeate, after 30 Kda UF and additional washes [2]: 0.8
BBI activity, step: BBI pool [2]: 0.6
BBI activity, step: BBI pool after microfiltration 0.45/0.2 [2]: 0.6
BBI activity, step: Final after lyophilization [2]: 0.9
BBI activity, step: Retentate of 5 KDa after 5x concentration [2]: 0.9
BBI activity, step: Retentate of 10 Kda after diafiltration [2]: 1
Substance: Bowman-Birk inhibitor (BBI) purified from soy flour

KTI activity, quality control of material loaded on the DEAE column [3]: 0.97 not printed
Trypsin inhibitor activity of SBTI intermediate (large-scale prep) (mg trypsin inhibited per mg protein) [3]: 1.34
BBI activity, quality control of material loaded on the DEAE column [1]: 0.09 not printed
Chymotrypsin inhibitor activity of SBTI intermediate (large-scale prep) (mg chymotrypsin inhibited per mg protein) [1]: 0.98
Substance: SBTI intermediate (crude soybean trypsin inhibitor preparation from soy flour)

— patent publication US20190321303A1
